Data reported in the DeepSol protein solubility set.

Experiment: soluble on expression in E. coli; label from the status in PepcDB or PDB records
For “AACKFLRRKCTSDCVFAPYFPPEEPTKFANVHRIFGASNVSKILHEVAPHQREDAVNSLAYEAEARLKDPVYGCVGAISVLQRQVLRLQRELEETNADLMRYAGCLGGETTSAYGGRRG”, the “soluble on expression in E. coli” value was “not soluble”.
For “MNSSILLEVFKNAFSSIAEEMGLVLQRTAFSPNIKERRDFSCAVFDKEGNLVAQAAHIPVHLGSMPLSVKEAIKAFKGEFEEGDMVVLNDPYMGGTHLPDITLVAPFFYKGELLFFLANRAHHADVGGATPGSMPLSTSIFQEGFIIPPLKLMKRGELNEDFMKVFLRNVRTPEEREGDFKAQIMANITGIKRLRELIEREGIEKVLFFSKELMNYSERIIRERIKALPEGEYEFEDYMEDDGYGRKDVKIHLKLKVEKEKLIFDFSKSDDQTRGGINAVRAITLSAVYYAVISLLGSDIPVNEGCFRPLEVITRKGSVVDAEFPAGVAGGNVETSQRIVDVVLGAFSKAIPEKVPAASQGTMNHVTIGGINPENGEPFTYYETIGGGMGASAKGDGESAVHSHMTNTLNTPIEALEHYYPILVTEYSIRKGSGGEGMHRGGDGIVREYEFLTDVEVTVLSERRRLAPYGLFGGKPGMPGINLIKTEEGEKEMPSKFSVYLKKGDRLRVETPGGGGYMKEE”, the “soluble on expression in E. coli” value was “not soluble”.
For “MELLLSKVTDAGIDPSSVSGEEAITLWEHIGRHIASTSREKAHCLIISAEYRREIKQLCDSIEELRQALELLSLPEDVEDILSVKASLSERLVEVGDYNSALTEYIASTNIAVEYGFIDEYVLAIIGMGNLCDAYGDHNRALRYYQKIDAIDHAISSRSLRLRYKLYMLACYISLKRVAEASELLGECEELSILVSDKNLAAQTHLYRAKLHRLQEEYSEALLSISSIKYTTGSATTYWLSTMVKIETAYCLNGVGHTSLANLLLESIGKRIKKHSSPILAKRFYNAMSKVSASQGQFQQALSCEKRAFRIESDLIKHIPISELGAAQLRRLSRFELQLKLILSEIENKEL”, the “soluble on expression in E. coli” value was “not soluble”.
In the case of “MTQTYNADAIEVLTGLEPVRRRPGMYTDTTRPNHLGQEVIDNSVDEALAGHAKRVDVILHADQSLEVIDDGRGMPVDIHPEEGVPAVELILCISVVNALSKRVEVNVRRDGQVYNIAFENGEKVQDLQVVGTCGKRNTGTSVHFWPDETFFDSPRFSVSRLTHVLKAKAVLCPGVEITFKDEINNTEQRWCYQD”, the “soluble on expression in E. coli” value is reported as “soluble”.
With “PLNEVVRLHGSSGTSGKPTVVAYTQKDLEHWSSIIARSIYMAGGRKGDLLHNAYGYGLFTGGLGLHGGSEKLGCVTVPISGGNTQRQITLIQDFKPRVICGTPSYIMNIGETMKKMGIDPASTSIQYAILGSEPWSEEMRKNLETMFNMKAMDIYGLSEVIGPGVGMEC” the “soluble on expression in E. coli” value was “not soluble”.
For “SLAATGNASKPSLNSFYADGLGQLRNGLFSCFQPVFGYFGTKTTVEIEKSEDELWEIPFDAISELEWLGSGSQGAVFRGQLENRTVAVKKVNQLKETEIKHLRHLRHQNIIEFLGVCSKSPCYCIVMEYCSKGQLCTVLKSRNTITRELFAQWVKEIADGMHYLHQNKVIHRDLKSPNILISAEDSIKICDFGTSHMQKKMDSTMMSFCGTVSWMAPEMIKKQPCNEKVDVYSFGVVLWEMLTRETPYANIAQMAIIFGVGTNILSLPMPEEAPKGLVLLIKQCLSQKGRNRPSFSHIRQHWEIFKPELFEMTEEEWQLAWDSYREFAKCIQYPSTVTRDHGGPKSAFAMEEEIQRKRHEQLNHIKDIRNMYEMKLKRTNKMYDKLQGCFTELKLKESELAEWEKDLTER”, the “soluble on expression in E. coli” value was “soluble”.
With “MGSDKIHHHHHHMKEPLSLSFDEQMALFEERGMQMTSKDVEKLKVIGYYRIKQFAAPLANKKIVNENTVYDYKGIYFSDVLKRYYQDKNLRIHLLHAIEKIEVALKTWVAFILGEQYGAFGYLNFSEWCDKNRYSKFEIEKRQFFFKKDLLRATSRSCTEDIKLKKNKEKDNFPSIWLAVEVLTFGELVRLVEIMSTRNKRKLSKMFRCTDIELLSWLKCINFVRNACAHNANVIDLQLETKPVCRSDWKDYLYNVNKSNNGTPSNKLAIVIFIIKTLVTPINERYGWKNIRRNIARLVDSSDKNAHLLGFSDCASAYKVLEKSNGTTTKASLP” the “soluble on expression in E. coli” value was “not soluble”.
With “MGHHHHHHSHMFKNTFQSGFLSILYSIGSKPLQIWDKKVRNGHIKRITDNDIQSLVLEIEGTNVSTTYITCPADPKKTLGIKLPFLVMIIKNLKKYFTFEVQVLDDKNVRRRFRASNYQSTTRVKPFICTMPMRLDDGWNQIQFNLLDFTRRAYGTNYIETLRVQIHANCRIRRVYFSDRLYSEDELPAEFKLYLPVQNKAKQ” the “soluble on expression in E. coli” value was “soluble”.
With “QVQLVQSGAEVRKPGASVKVSCKASGDTFSSYAISWVRQAPGQGLEWMGGIIPIFGTANYAQAFQGRVTITANESTSTAYMELSSLRSEDTAIYYCARDNPTLLGSDYWGAGTLVTVSSASTKGPSVFPLAPCSRSTSGGTAALGCLVKDYFPEPVTVSWNSGALTSGVHTFPAVLQSSGLYSLSSVVTVPSSSLGTQTYICNVNHKPSNTKVDKRV” the “soluble on expression in E. coli” value was “soluble”.
For “MGSDKIHHHHHHGNDDFPAEEPKVPLEITSAFVTGDVQTRAVTPELLTSGSIGVFLEGRSGTGYDKKDNIQYDYNVGWKPKTETIYLGGEDADVCAYKKTTKLDLSAKEAVPLVSQIYDAEIDLVYATNQTVNGTSAGKSVEFTMGHAYSQIEFVFSREDYPNTCKVTEITVENANIIKTATLNLATGGYTPVTVEKVSYWTNVAKHEDGIAVPESGTVKSNVLMIPCTLANAGGTGVTLELKVDGKLMTVPIAHDKLGALTAGVIHQISLKLKGTALEISVKDTPWDNQPVDGEYNPEP”, the “soluble on expression in E. coli” value was “not soluble”.
In the case of “MFRIASSSYSQFIASANPSIQTRCISIARIDQKIKRGNSDRRVIHAKKFTKQTDSPASVAGDGFILSKTFLQNAIAHQPPSGLTPVGRDGGRDEKKLILHPKEIVEHLNKYVVGQEEAKKYLAVAVYQHYRRVENNLRVTEQWMLSEAVAAAKERKKMRKQNPEEEEYYPEYVQKSQRQILKDLEKRQDMILDKSNMILLGASGTGKTFMTQKLAEVLDVPIVICDCTTLTQAGYVGDDVDTVIQKLLAEAMGDIEKCQRGIVFLDEFDKIYTSSDPLHTSGNRDVSGKGVQQALLKLVEGSLVKVRDPLAPNSKVTIDTSNILFIASGAFSNIEHIVARRMDKRLVTSLLFHFPQ”, the “soluble on expression in E. coli” value is reported as “not soluble”.
For “MAQRLDGARFRYLNEQLYSGPSSAAQRLFQEDPEAFLLYHRGFQSQVKKWPLQPVDRIARDLRQRPASLVVADFGCGDCRLASSIRNPVHCFDLASLDPRVTVCDMAQVPLEDESVDVAVFCLSLMGTNIRDFLEEANRVLKPGGLLKVAEVSSRFEDVRTFLRAVTKLGFKIVSKDLTNSHFFLFDFQKTGPPLVGPKAQLSGLQLQPCLYKRR”, the “soluble on expression in E. coli” value was “soluble”.
With “MAHHHHHHMRARRWWHGPYSLLYTLNLLLSLSLSPSHAGGGKEVSTTHTYTHPSTMQRGANVRPIKLAEKVFSTKTVCPTAASQLYVAHGLLGNSGNWATASRHLVEHSALKDKLRRAIAVDMRNHGSSTHSSDHTNAALASDLEALVLREQQELDRAFCDPSSCTTRNAILIGHSMGGLTVMGALLRRANEHHLLTSLVDHCDDVGSTSSYGAWPAEHRRQCIAGMRAVNEEFGFASSQPIAEVLFNNCRASSSLSTGSGNASRIPLLGRVAGAIIVDVTPTMRLGEQRSCADNVKETLERMTQVRLDEIHSYKDATAELIRVGMADEEMRAFVATNIALDPKDKSKPAQWKCNLPVLAGDYGSFQPSITSWFTSSATTMGPASSAAAPRLCTLPVMFVFGGESPYNEPDHRQHISRFFSNATQVEVAGAGHFVHYEKPKEFTDAVAPFIASLISQP” the “soluble on expression in E. coli” value was “not soluble”.
With “MSLDSISLHKIFYKVLKNNTLPECQVIAAEGLCKLYLADIFNDDDLFETLILSYFSPSNSSNEGLIQAFAFCIPVYSYSHVLHQQRITKIASDVLLRLYMLWVDFQANEETDENIETMLKPNVILQQLISWTDPRKLIGENEKAINDNYQLNFLLDIFQQFPKFDKKNIKKMILTNINAFYVSSDNDMHKLREIKEHLEDIIENEIIDTMTLNSLEKFKNTIIDCLEEAKEKSENQTKDEIESSDGEYSMILESSNIGNISDVEKDVNVEAAQFSDSENDFEDSDDDTSRKRNRSKLEESIANNTSEKLSVNEDYDSEDTNEPKNDAKDINEPEDGTKDVIMEDSVSSNVIENSKNVSFILPDNDYSSSESSMSVDDESYKEEGHHHHHH” the “soluble on expression in E. coli” value was “soluble”.
With “MAHHHHHHMADYNAAGADTAVVDDNVPPGITTKQDEIIQYVAKYVVASCDGARYQDKVRTRTKHNPYFDFLNAKHPYHQYYQYLLESYRHWMRNSEAVGAGTWGGGVDATQGQGQQQQWNEEDYYQYYGAYAGQASGIEFQGNAAGQLG” the “soluble on expression in E. coli” value was “not soluble”.
For “MSYSDLLRELAAAHAISSSYSGFGGAHVEVSDDTLVKTLRSLGVCFGNEDEPATDHEPLTGPMPSEDQIRYALQQRYDAEATRPLPRCVVAVEGDPYVFNVHVHDGAPADITITLEDGSTAEVTQVENWAPPREVDGITWGEASFQLPSDLPLG”, the “soluble on expression in E. coli” value was “not soluble”.
In the case of “RHLVVPLNRLRDRADALRADELESTPLAAPLAARRDELGELAQALEHMAERLRLSLAQQRLLLRTLSHELRTPLARLRIAHDSELPPEQLRQRLDREIGDMQRLLEDTLDLAWMDTERPQLPTEPVLALSVWEALRDDACFESGWDPARLPCRLGVDCRVEVHLDSLAQAMENLLRNAIRHSPEDGTVSLDGEREGDFWHLRLQDQGPGVAEDQLERIFLPYQRLDDSAGEGFGLGLAIARRAIELQGGRLWASNGKPGLC”, the “soluble on expression in E. coli” value is reported as “not soluble”.
With “GPGSMKKTVEDRSLEFLIRRRNDAELPPLASLSCKHLKQHHWRDAFDDEQAALREQLWAVKTQLDVIPAETYTATRNKLFPLAASGEQRNFSNRAGHKLLESMESTGVWMELSKLLRGKSTKRPRDFAFADVCGGPGAFSQALFQAGRKRGWRHLHGYGMTLAGVSGLDWYAHLLKSPQFTCTYGLDGTGDIFKLSNIDCLASITKAAPMFLVVADGGFNVDFSVTNYQETISSRIMYGQWLAALKLLRKGGCFVLKLFDTFSPLSRAVLYLSCCMYRRVHVAKPRHSRVVNSERYLVCVDFLGYPSEGWSRYLDSFYEVGFVDNEHVPQLIPREWCLQDAVFMADVRDMNTAVATNQVIALQMILDAAPAMTEELKAKTIEKKPAAGSDDGRTPPPDEGGDGE” the “soluble on expression in E. coli” value was “not soluble”.
With “MASEIHMTGPMCLIENTNGRLMANPEALKILSAITQPMVVVAIVGLYRTGKSYLMNKLAGKKKGFSLGSTVQSHTKGIWMWCVPHPKKPGHILVLLDTEGLGDVEKGDNQNDSWIFALAVLLSSTFVYNSIGTINQQAMDQLYYVTELTHRIRSKSSPDENENEVEDSADFVSFFPDFVWTLRDFSLDLEADGQPLTPDEYLTYSLKLKKGTSQKDETFNLPRLCIRKFFPKKKCFVFDRPVHRRKLAQLEKLQDEELDPEFVQQVADFCSYIFSNSKTKTLSGGIQVNGPRLESLVLTYVNAISSGDLPCMENAVLALAQIENSAAVQKAIAHYEQQMGQKVQLPTESLQELLDLHRDSEREAIEVFIRSSFKDVDHLFQKELAAQLEKKRDDFCKQNQEASSDRCSGLLQVIFSPLEEEVKAGIYSKPGGYRLFVQKLQDLKKKYYEEPRKGIQAEEILQTYLKSKESMTDAILQTDQTLTEKEKEIEVERVKAESAQASAKMLHEMQRKNEQMMEQKERSYQEHLKQLTEKMENDRVQLLKEQERTLALKLQEQEQLLKEGFQKESRIMKNEIQDLQTKMRRRKACTIS” the “soluble on expression in E. coli” value was “soluble”.
In the case of “NAKKPTMQLSDSGVDILIGSASYEGGELVLPTSITNQSSQSVIQVEVEVQVFDMSGKQLAKEKVTVWQSIKRMADTYLRPQQAEQGKSIKLAVPQSQQYQFSAKVLEVKTR”, the “soluble on expression in E. coli” value is reported as “not soluble”.
For “MGHHHHHHSHMVLLHVKRGDESQFLLQAPGSTELEELTVQVARVYNGRLKVQRLCSEMEELAEHGIFLPPNMQGLTDDQIEELKLKDEWGEKCVPSGGAVFKKDDIGRRNGQETSGSRCLCYHGDGERCLGPASRRGDDCLPHGVATV”, the “soluble on expression in E. coli” value was “not soluble”.
